What was measured:
[1] = biological target: anti-His single-chain antibody (scFv) artificial receptor displayed on 293.HissFv.rec cells; assay: cell-based or functional assay
[2] = biological target: wild-type Ad5 fiber (adenovirus serotype 5 (Ad5)) (UniProt P11818); assay: antibody-mediated virus capture on 9E10-coated plates, read out by GFP expression in 293.HissFv.rec cells (FACS)
[3] = biological target: TSFLCmychis knobless fiber protein (adenovirus serotype 5 (Ad5); Moloney Murine Leukemia Virus) (UniProt P11818); assay: as above

| Substance | gene transfer (EGFP expression) by AdGFP-TSFLCmychis into 293.HissFv.rec cells in the presence of the anti-fiber knob antibody [1] | percent functional virus bound (relative to binding to 1D6.14) [2] | percent functional virus bound (relative to binding to 1D6.14) [3] |
| --- | --- | --- | --- |
| TSFLCmychis knobless fiber protein (from UniProt P11818 1-403; P03385 514-553) | > 10% |  |  |
| anti-Myc MoAb 9E10 (antibody) |  | 0.2% | 2.3% |

From US20030082146A1
